# Assay results as given in PMC8943916.
# Molecular target: TIM (the TIM-EGFP-LacI bait of the FRAP experiment, not named)
# Experiment: FRAP
binder,measurement,value
TagRFP-PPP1R10-TND (domain or fragment) KLLNNWLTYSKTTNNIPLLQQILLTLQHLPLTVDHLKQNNTAKLVKQLSKSSEDEELRKLASVLVSDWMAVIRSQ,FRAP half-life,14.9 s
